System: CFTR G542X
Assay: Two-electrode voltage clamp of CFTR Cl- current in Xenopus oocytes, G542X
Type: cell-based
Description: FIGS. 20A-20D. Delivery of ACE-tRNA as small RNA supports robust suppression of G542X and W1282X nonsense mutations. FIG. 20A) CFTR cRNA with G542X or W1282X cystic fibrosis causing nonsense mutations was co-injected in Xenopus oocytes with serial dilutions of pre-folded ACE-tRNAGly and ACE-tRNATrp, respectively. Two-electrode voltage-clamp recordings of CFTR Cl— current were performed after 36 hrs. Current-voltage relationships illustrate that increasing amounts of FIG. 20B) ACE-tRNATrp and FIG. 20C) ACE-tRNAGly pre-folded RNA results in increased CFTR function (measured CFTR Cl— currents) with WT CFTR achieved in ACE-tRNAGly experiments. FIG. 20D) Dose response of G542X ACE-tRNAGly (filled circles) and W1282X ACE-tRNATrp (open squares) rescue (CFTR Cl— currents elicited at +40 mV were normalized to WT CFTR Cl— currents at +40 mV).
In vitro cRNA transcription. G5-42XUGA, W1282XUGA, and WT CFTR pGEMHE (Mense et al., 2006; PMID:1703051) plasmids were linearized by 10× excess of NheI-HF restriction enzyme (site positioned 3′ of coding region)(New England BioLabs, USA) for 3 hrs at 37° C. and purified using standard cDNA precipitation methods. All cRNAs were transcribed using the mMessage mMachine T7 Kit (ThermoFisher Scientific, USA). Purification of the cRNA from the transcription reaction was conducted on columns from the RNeasy Mini Kit (Qiagen, Germany). Concentration was determined by absorbance measurements at 260 nm and quality was confirmed on a 1% agarose gel (RNase-free). All cRNA was queued to 1 μg/ml before use and all results were generated from ≥2:2 cRNA preparations.
Expression in Xenopus laevis oocytes. Xenopus laevis oocytes (stage V and VI) were purchased from Ecocyte (Austin, TX). […]
Two-electrode voltage clamp ([…]) recordings. CFTR Cl^− currents were recorded in ND96 bath solution that contained (in mM): 96 NaCl, 2 KCl, 1 MgCl2, and 5 HEPES (pH 7.5) in the presence of a maximal CFTR activation cocktail, forskolin (10 μM; adenylate cyclase activator) and 3-isobutyl-1-methylxanthine (1 mM; phosphodiesterase inhibitor). […]

B1: Glychr19.trna2: top performing glycine ACE-tRNA UGA, SEQ ID NO: 53 (nucleic acid)
chain: GCGUUGGUGGUAUAGUGGUUAGCAUAGCUGCCUUCAAAGCAGUUGACCCGGGUUCGAUUCCCGGCCAACGCA
modifications: chemistry not given here
Dose response of G542X rescue
  Hill coefficient: ~1.4
Normalized to WT CFTR Cl- currents
  level of CFTR function reached: clear saturation at WT CFTR levels
pre-folded ACE-tRNA RNA per oocyte, 36 hrs, currents at +40 mV normalized to WT CFTR
  EC50 of CFTR Cl- current rescue: ~20 ng

Reference: patent US12559749B2, “Methods of rescuing stop codons via genetic reassignment with ACE-tRNA” (UNIVERSITY OF IOWA RESEARCH FOUNDATION, priority 2017, dated 2026)
